According to US20090305963A1, “Lipocalin 2 for the Treatment, Prevention, and Management of Cancer Metastasis, Angiogenesis, and Fibrosis” (priority 2005, published 2009):

Columns and labels:
[1] = test system: caveolin-1; assay: Western blot of caveolin-1 expression in 4T1 clones; format: cell-based, mouse; conditions: RL vs R cells
From the text: FIGS. 17A-17C show the involvement of caveolin-1 in the MET-inducing and anti-angiogenic function of lipocalin 2.
Cells were stained as described previously (Mammoto et al., Cancer Lett. 184:165-170, 2002) and images acquired with a Delta Vision system (Applied Precision, Issaquah, Wash.) equipped with an Axiovert 100 microscope (Carl Zeiss MicroImaging Inc., Shelton, Conn.) and a Photometrics 300 series scientific-grade cooled CCD camera, reading 12-bit images, and using the 63/1.4 NA plan-Neofluar objective. For immunoprecipitation and immunoblotting, tissues were weighed, diced, soaked in ice cold RIPA buffer with 1 mM phenylmethylsulfonyl fluoride (PMSF), 1 μg/ml Aprotinin, 1 mM Na3VO4, 1 nM NaF, homogenized on ice, centrifuged at 10,000 g for 10 minutes at 4° C., and the supernatant fluid collected as total cell lysate. Cultured cells were washed, scraped, and solubilized in a lysis buffer containing 20 mM Tris-HCl pH 7.5, 150 mM NaCl, 0.5% Triton X-100, 1% aprotinin, and 1 mM PMSF. After 20 minutes on ice, the cells were pelleted by centrifugation and the supernatants were used as a cell lysate. […] Protein bands were detected using SuperSignal® West Pico Chemiluminescent Substrate (Pierce Chemical Co., Rockford, Ill.) (Hanai et al., J. Cell. Biol. 158:529-539, 2002).

[2] = test system: E-cadherin mRNA; assay: E-cadherin mRNA by semi-quantitative RT-PCR; format: cell-based, mouse; conditions: EV, R and RL cells in vitro
Experimental: Total RNA was isolated from 4T1 cells in vitro using the SV Total RNA Isolation system (Promega, Madison, Wis.). Tissue RNA was collected with TRIzol® (GibcoBRL, Gaithersburg, Md.). RT-PCR was performed on the Perkin Elmer GeneAmp PCR system 2400 using Omniscript (Qiagen, Valencia, Calif.) for reverse transcription reaction, and Taq DNA polymerase (Qiagen) and primers for mouse E-cadherin (5′-[…]-3′ and 5′-[…]-3′, SEQ ID NO: 5), GAPDH (5′-ACAGTCTTCTGAGTGGCA-3′, SEQ ID NO: 6, and 5′-CCCATCACCATCTTCCAG-3′, SEQ ID NO: 7) and HA-tagged lipocalin 2 (5′-GGAGTACTTCAAGATCAC-3′, SEQ ID NO: 8 and 5′-[…]-3′, SEQ ID NO: 9) for DNA amplification. The PCR conditions were established for DNA amplification in the linear range. RT-PCR products were analyzed on 1% agarose gels.

[3] = test system: colon cancer cells; conditions: ectopic expression of lipocalin 2; cited from earlier work
[4] = test system: VEGF mRNA; assay: VEGF mRNA by semi-quantitative RT-PCR in 4T1 cells; format: cell-based, mouse; conditions: RL vs R cells
Experimental: For VEGF assays, two μg of each RNA sample was reverse transcribed using oligo-dT priming and control reaction was prepared for every sample where the reverse transcriptase was omitted. PCR was performed using Taq DNA polymerase (Qiagen) using primers for mouse VEGF (5′-GTACCTCCACCATGCCAAGT-3′, SEQ ID NO: 10, and 5′-GCGAGTCTGTGTTTTTGCAG-3′ SEQ ID NO: 11), GAPDH (5′-ACAGTCTTCTGAGTGGCA-3′ SEQ ID NO: 6 and 5′-CCCATCACCATCTTCCAG-3′, SEQ ID NO: 7) for DNA amplification. PCR amplification was achieved by initial 94° C. incubation for 5 minutes followed by 25 cycles of 94° C. for 30 seconds, 58° C. for 30 seconds and 72° C. for 30 seconds, with 72° C. for 7 minutes as an extension time. These PCR conditions were established for DNA amplification in the linear range. PCR products were analyzed on 1.5% agarose gels.

[5] = test system: 4T1-ras (R) cells; assay: In vitro invasion assay (Matrigel-coated Transwells); format: cell-based, mouse; conditions: stable lipocalin 2 expression (RL) vs R cells; 16 hours
Experimental: FIG. 3 is a graph depicting the invasion migration of stable 4T1 clones using EV, R, and RL cells. Polycarbonate membranes of Transwells were coated with Matrigel® and cells were seeded. Sixteen hours later, cells were fixed, stained with Giemsa solution, and counted for each of the stable clones; EV, R, and RL.
Polycarbonate membranes (6.5 mm diameter, 8 μm pore size) of Transwells (Coster, N.Y.) were coated with Matrigel® (BD Biosciences, Franklin Lakes, N.J.) and cells were seeded (10^6 cells/100 μl) with DMEM including 0.1% serum. 16 hours later, cells were fixed, stained with Giemsa solution, and the upper surface of each membrane was scraped with a cotton swab. Cells that had reached the lower surface of the membrane (migrated cells) were counted in 20 random fields using a light microscope (×400).

[6] = test system: E-cadherin; assay: E-cadherin phosphorylation (immunoprecipitation and western blot); format: cell-based, mouse; conditions: R cells vs RL cells or R cells with inhibitor
From the text: Cells were stained as described previously (Mammoto et al., Cancer Lett. 184:165-170, 2002) and images acquired with a Delta Vision system (Applied Precision, Issaquah, Wash.) equipped with an Axiovert 100 microscope (Carl Zeiss MicroImaging Inc., Shelton, Conn.) and a Photometrics 300 series scientific-grade cooled CCD camera, reading 12-bit images, and using the 63/1.4 NA plan-Neofluar objective. For immunoprecipitation and immunoblotting, tissues were weighed, diced, soaked in ice cold RIPA buffer with 1 mM phenylmethylsulfonyl fluoride (PMSF), 1 μg/ml Aprotinin, 1 mM Na3VO4, 1 nM NaF, homogenized on ice, centrifuged at 10,000 g for 10 minutes at 4° C., and the supernatant fluid collected as total cell lysate. Cultured cells were washed, scraped, and solubilized in a lysis buffer containing 20 mM Tris-HCl pH 7.5, 150 mM NaCl, 0.5% Triton X-100, 1% aprotinin, and 1 mM PMSF. After 20 minutes on ice, the cells were pelleted by centrifugation and the supernatants were used as a cell lysate. Cell lysates or immunoprecipitated cell lysates were separated by PAGE (NuPAGE® gels; Invitrogen, Carlsbad, Calif.), followed by electroblotting onto a polyvinylidenedifluoride membrane (PVDF). Protein bands were detected using SuperSignal® West Pico Chemiluminescent Substrate (Pierce Chemical Co., Rockford, Ill.) (Hanai et al., J. Cell. Biol. 158:529-539, 2002).

[7] = test system: VEGF; assay: Measurement of VEGF levels by ELISA in conditioned media of 4T1 cells; format: cell-based, mouse; conditions: RL vs R cells; conditioned media, 2 days
Experimental: Conditioned media of 4T1 cells were collected after 2 days of incubation. Murine VEGF levels were determined in duplicate using a commercially available sandwich ELISA kit (R&D Systems, Minneapolis, Minn.), with a affinity purified polyclonal antibody specific for mouse VEGF has been pre-coated onto a microplate. Results were compared with a standard curve of mouse VEGF with a lower detection limit of 7 pg/mL. A model 680 microplate-reader (Bio-Rad Laboratories, CA) was used to measure light intensity correlating with VEGF binding.

B1: lipocalin 2: human lipocalin 2 cDNA (HA tagged) in pcDNA3.1, stably expressed in 4T1-ras cells (RL clone); iron-siderophore binding protein (protein, UniProt P80188 21-198, looked up)
Neutrophil …: QDSTSDLIPAPPLSKVPLQQNFQDNQFQGKWYVVGLAGNAILREDKDPQKMYATIYELKEDKSYNVTSVLFRKKKCDYWIRTFVPGCQPGEFTLGNIKSYPGLTSYLVRVVSTNYNQHAMVFFKKVSQNREYFKITLYGRTKELTSELKENFIRFSKSLGLPENHIVFPVPIDQCIDG
modifications: HA tag
[1]
  caveolin-1 expression: rescued this loss of caveolin-1
[2]
  E-cadherin mRNA: remained unchanged
[3]
  liver metastasis: inhibited liver metastasis
[4]
  ras-augmented VEGF mRNA level: reduced this upregulation
[5]
  reversal of ras induced invasiveness in vitro: approximately 76%
[6]
  E-cadherin phosphorylation: markedly downregulated
[7]
  suppression of ras-induced VEGF secretion: ≈ 7.5 fold
